Where a chain is given by its changes, count along the chain named.
B1: 001-Hu5 (antibody, V domains shown)
VH: EVQLVESGGGLVQPGGSLRLSCAASGFAFSTYDLSWVRQAPGKGLEWVAYINNGGISTYYSDTVKGRFTISRDNAKNTLYLQMNSLRAEDTAVYYCVRGPFYGSANYFDYWGQGTLVTVSS
VL: DIQMTQSPSSLSASVGDRVTITCRTSESIYSNLPWYQQKPGKSPKLLVYDATKLAEGVPSRFSGSGSGTDYTLTISSLQPEDFATYYCQHFWVTPWTFGQGTKVEIK
notes: Humanized form of #001; also called VH1 + VL4
B2: 001-Hu4 (antibody, V domains shown)
VH: B1 VH with T78S
VL: B1 VL
notes: Humanized form of #001; also called VH2 + VL4
B3: 001-Hu3 (antibody, V domains shown)
VH: B1 VH
VL: B1 VL with S43A, V48I
notes: Humanized form of #001; also called VH1 + VL3
B4: 001-Hu2 (antibody, V domains shown)
VH: B1 VH with T78S
VL: B1 VL with V48I, Y71F
notes: Humanized form of #001; also called VH2 + VL2
B5: 001-Hu1 (antibody, V domains shown)
VH: B1 VH
VL: B1 VL with S43A, V48L
notes: Humanized form of #001; also called VH1 + VL1
B6: 219-Hu3 (antibody, V domains shown)
VH: QVQLVQSGAEVKKPGSSVKVSCKASGYSFTNYWMNWVRQAPGQGLEWMGMIHPSDTETRLNQNFKDRVTITADKSTSTAYMELSSLRSEDTAVYYCARGEGLGAARSVSMDYWGQGTLVTVSS
VL: DIQMTQSPSSLSASVGDRVTITCRASQDISNYLNWYQQKPDGTVKLLIYYTAILHSGVPSRFSGSGSGTDYSLTISSLQPEDFATYFCQQGNTLPWTFGQGTKVEIK
notes: also called VH5 + VL5
B7: 219-Hu2 (antibody, V domains shown)
VH: B6 VH with R67K, V68A
VL: B6 VL
notes: also called VH4 + VL5
B8: 219-Hu1 (antibody, V domains shown)
VH: B6 VH with S16A, G44R, A72R, K74T, T76A
VL: B6 VL
notes: also called VH3 + VL5
B9: 219-Hu4 (antibody, V domains shown)
VH: B6 VH with R38K, M48I, R67K, V68A, I70L, A72V
VL: B6 VL
notes: also called VH6 + VL5
B10: 219-Hu5 (antibody, V domains shown)
VH: B6 VH with A72V
VL: B6 VL
notes: also called VH7 + VL5

What was measured:
[1] = target: T1, human TNFR2 on the surface of CHO-TNFR2 cells (human, UniProt P20333 23-461); assay: competition flow cytometry on CHO-TNFR2 cells, competitor TNFα-biotin; IC50 against 001-WT
T1 construct: whole, on cells
T1 sequence (looked up): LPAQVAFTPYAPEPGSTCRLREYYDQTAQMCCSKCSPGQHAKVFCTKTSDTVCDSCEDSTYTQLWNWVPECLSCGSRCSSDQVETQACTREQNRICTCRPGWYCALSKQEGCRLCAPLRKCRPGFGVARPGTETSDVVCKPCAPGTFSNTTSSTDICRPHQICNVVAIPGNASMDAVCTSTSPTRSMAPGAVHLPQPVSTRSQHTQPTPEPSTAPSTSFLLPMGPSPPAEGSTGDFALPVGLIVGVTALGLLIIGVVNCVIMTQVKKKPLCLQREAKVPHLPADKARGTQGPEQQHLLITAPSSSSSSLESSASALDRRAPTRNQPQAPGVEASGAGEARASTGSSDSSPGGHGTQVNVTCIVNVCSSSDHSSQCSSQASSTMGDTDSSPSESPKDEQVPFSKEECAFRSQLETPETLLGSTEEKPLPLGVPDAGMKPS
Description: CHO stable cells highly expressing human TNFR2 were used for the experiment (the same as CHO-TNFR2 in Example 4). The CHO-TNFR2 cells were digested, washed twice with DPBS, then stained with Live/Dead (L/D) (20 minutes at room temperature), and plated at a density of 1×10⁵ cells/50 μl/well. A test anti-TNFR2 antibody was diluted to 6 μg/ml with a staining buffer as the starting concentration: the antibody was subjected to 3.33-fold gradient dilution, with a total of 7 concentration points. The diluted antibody was added to the plated cells at 50 μl/well, and the mixture was mixed well by gentle pipetting, and incubated at 4° C. for 30 minutes. Then the diluted 100 ng/ml of human TNFα-biotin was added at 100 μl/well, and the mixture was mixed well by gentle pipetting, and then incubated at 4° C. for 30 minutes. The mixture was washed twice with a staining buffer, and then 0.12 μg/ml PE-streptavidin (BioLegend, Cat #405204) was added at 100 μl/well; the resulting mixture was incubated at 4° C. for 30 minutes. The mixture was washed twice with a staining buffer, and then 150 μl of staining buffer was added to resuspend the cells; signals were detected by a flow cytometer (Thermo Attune NxT). The inhibitory curve of an antibody was drawn with antibody concentration as the abscissa and corresponding MFI value as the ordinate, and fitted with four parameters (GraphPad Prism9) to calculate the IC50 value. The smaller the IC50 value, the stronger the ability of an antibody to inhibit the binding of human TNFα to human TNFR2. The blocking effect of a humanized antibody was normalized to its corresponding human-murine chimeric WT antibody. The higher the percentage value, the better the inhibitory effect of the humanized antibody.

[2] = target: T2, human TNFR2 (Novoprotein, Cat #C830) (human, UniProt P20333 23-257, limits assumed); assay: competition ELISA, competitor human TNFα-Biotin; IC50 against 219-WT
T2 construct: construct not described; also called human TNFR2 protein
T2 sequence (looked up): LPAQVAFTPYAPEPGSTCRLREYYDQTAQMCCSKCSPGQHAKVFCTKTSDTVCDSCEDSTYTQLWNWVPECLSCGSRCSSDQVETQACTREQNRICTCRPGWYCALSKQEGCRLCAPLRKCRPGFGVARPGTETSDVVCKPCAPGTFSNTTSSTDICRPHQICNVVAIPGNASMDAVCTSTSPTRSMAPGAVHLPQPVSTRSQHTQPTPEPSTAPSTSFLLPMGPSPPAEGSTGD
Description: (§1) 1 μg/ml human TNFR2 (Novoprotein, Cat #C830) was pre-coated with 100 μl/well […] in an ELISA plate. All the test TNFR2 antibodies were subjected to 2.5-fold gradient dilution from the highest concentration of 30 μg/ml; the diluted antibodies were mixed with 15 ng/ml human TNFα-Biotin (Acro Biosystem, Cat #TNA-H82E3) in equal volume, respectively; the resulting mixture was added to the ELISA plate at 100 μl/well, and incubated with shaking at room temperature for 2.0 hours. The plate was washed, and then a Streptavidin-HRP working solution (diluted at 1:10000) was added at 100 μl/well, and the mixture was incubated with shaking at room temperature for 40 minutes. The plate was washed again, and then the substrate TMB of HRP was added to develop colour. A stop solution was added to stop the reaction, and then a microplate reader (MD 13) was used to read the absorbance value. The inhibitory curve of an antibody was drawn with antibody concentration as the abscissa and corresponding OD value as the ordinate, and fitted with four parameters (GraphPad Prism9) to calculate the IC50 value. The smaller the IC50 value, the stronger the ability of an antibody to inhibit the binding of human TNFα to human TNFR2. The blocking effect of a humanized antibody was normalized to its corresponding human-murine chimeric antibody WT. The higher the percentage value, the better the inhibitory effect of the humanized antibody.

[3] = target: T2, human TNFR2 (Novoprotein, Cat #C830); assay: competition ELISA, competitor human TNFα-Biotin; AUC against 219-WT
Description: as §1

Binder	% Relative activity (WT antibody/test antibody) [1]	% Relative activity (WT antibody/test antibody) [2]	% Relative activity (WT antibody/test antibody) [3]
B1	86.2%		
B2	92.3%		
B3	100%		
B4	84.3%		
B5	98.3%		
B6		111%	103%
B7		120%	104%
B8		128%	105%
B9		126%	105%
B10		136%	106%

Reference: patent US20240109974A1 (SHANDONG SIMCERE BIOPHARMACEUTICAL, published 2024)
